Laboratory results as given in PMC8185509 (Molecular Medicine Reports, 2021).

Target: T1, optic atrophy 1, Myc-tagged (OPA1-myc) (UniProt O60313-1 88-960)
T1 sequence (looked up): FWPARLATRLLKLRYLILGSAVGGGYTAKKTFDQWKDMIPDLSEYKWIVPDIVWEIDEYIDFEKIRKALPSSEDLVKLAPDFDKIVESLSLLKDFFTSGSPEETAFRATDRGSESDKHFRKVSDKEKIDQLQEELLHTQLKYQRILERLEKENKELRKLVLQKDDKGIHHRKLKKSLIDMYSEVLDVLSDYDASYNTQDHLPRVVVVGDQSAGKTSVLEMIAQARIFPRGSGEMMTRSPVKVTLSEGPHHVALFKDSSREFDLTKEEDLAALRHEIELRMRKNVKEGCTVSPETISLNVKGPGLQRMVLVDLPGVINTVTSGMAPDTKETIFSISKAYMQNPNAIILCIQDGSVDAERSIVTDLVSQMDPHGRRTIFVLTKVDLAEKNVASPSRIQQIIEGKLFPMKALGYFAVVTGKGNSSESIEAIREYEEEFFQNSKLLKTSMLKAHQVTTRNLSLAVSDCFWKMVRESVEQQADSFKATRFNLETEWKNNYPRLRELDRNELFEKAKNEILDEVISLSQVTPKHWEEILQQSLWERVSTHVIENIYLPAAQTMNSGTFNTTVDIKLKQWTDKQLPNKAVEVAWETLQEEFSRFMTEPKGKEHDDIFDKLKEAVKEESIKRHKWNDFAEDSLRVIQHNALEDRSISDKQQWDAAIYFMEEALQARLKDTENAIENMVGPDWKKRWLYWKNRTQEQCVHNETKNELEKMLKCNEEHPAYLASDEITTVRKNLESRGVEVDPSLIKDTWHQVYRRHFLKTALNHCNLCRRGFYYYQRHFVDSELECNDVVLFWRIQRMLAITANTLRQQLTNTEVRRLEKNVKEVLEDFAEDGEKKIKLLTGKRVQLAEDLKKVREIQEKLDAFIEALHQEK
Assay: pull-down

B1: recombinant GST-fused HIGD-1B (natural protein, human, UniProt Q9P298 1-99, looked up)
chain: MSANRRWWVPPDDEDCVSEKLLRKTRESPLVPIGLGGCLVVAAYRIYRLRSRGSTKMSIHLIHTRVAAQACAVGAIMLGAVYTMYSDYVKRMAQDAGEK
binding result: binds
